Legend:
Experiment in all cases: EMSA
[1] = biological target: T1, HuR (UniProt Q15717 1-326)
[2] = biological target: AUF1p37 (Homo sapiens, UniProt Q14103-4 1-287)
[3] = biological target: T1, HuR; remark: listed apart in the source

T1 sequence (Q15717 whole entry): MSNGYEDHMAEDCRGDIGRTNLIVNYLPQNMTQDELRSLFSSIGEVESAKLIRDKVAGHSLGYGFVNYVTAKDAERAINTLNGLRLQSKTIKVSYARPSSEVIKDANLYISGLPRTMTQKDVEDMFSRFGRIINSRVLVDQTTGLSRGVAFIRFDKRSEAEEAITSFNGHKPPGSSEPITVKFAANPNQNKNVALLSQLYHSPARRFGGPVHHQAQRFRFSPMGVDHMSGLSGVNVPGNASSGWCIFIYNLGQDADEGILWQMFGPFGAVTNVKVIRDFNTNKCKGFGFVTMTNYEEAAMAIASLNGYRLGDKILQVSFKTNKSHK

Binder	Kd [1] [nM]	Kd [2] [nM]	binding result [3]
GCUAGUUUUUUUGUACUAUU (ssRNA) [Nrf2 3'-UTR Site 1]	20 ± 5	6 ± 2	
AAAAAAAUUUUAAGAGCUGG (ssRNA) [Nrf2 3'-UTR Site 3]	75 ± 20	670 ± 82	
AAAAACUUAUUUAUACUGUU (ssRNA) [Nrf2 3'-UTR Site 2]		25 ± 4	no binding

Source: doi:10.1101/565937
